What was measured:
Assay in all cases: ELISA: SEAP-His proteins (1 nM) captured on anti-6-His antibody, antibody A 10 µg/mL with human IgG 100 µg/mL, HRP anti-mouse IgG, OD450 as % of human EphA4-SEAP-His
[1] = target: T1, human EphA7 extracellular region-SEAP-His protein (human, UniProt Q15375 28-555)
T1 construct: extracellular domain; also called Eph receptor extracellular region-SEAP-His protein; not shown: secretory alkaline phosphatase (SEAP); histidine tag
T1 sequence (looked up): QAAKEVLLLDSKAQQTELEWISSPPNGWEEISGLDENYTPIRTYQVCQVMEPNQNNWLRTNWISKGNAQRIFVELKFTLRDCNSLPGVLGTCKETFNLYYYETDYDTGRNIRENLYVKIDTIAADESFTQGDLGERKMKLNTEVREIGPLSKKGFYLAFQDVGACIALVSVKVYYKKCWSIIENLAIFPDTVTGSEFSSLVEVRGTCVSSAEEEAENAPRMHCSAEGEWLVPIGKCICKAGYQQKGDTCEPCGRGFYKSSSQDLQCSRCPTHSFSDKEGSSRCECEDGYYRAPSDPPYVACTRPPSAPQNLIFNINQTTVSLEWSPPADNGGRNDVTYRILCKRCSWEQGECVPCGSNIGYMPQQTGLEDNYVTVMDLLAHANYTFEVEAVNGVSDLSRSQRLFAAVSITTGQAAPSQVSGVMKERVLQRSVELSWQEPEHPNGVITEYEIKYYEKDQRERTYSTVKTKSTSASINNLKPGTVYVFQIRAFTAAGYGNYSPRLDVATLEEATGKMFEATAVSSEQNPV
Experimental: (§1) Rabbit anti-6-His antibodies (Bethel Laboratories) were coated onto the wells of a 96-well plate (Nunc). After incubating at 4° C. overnight, the wells were blocked at room temperature for 1 hour by 1% Block Ace (DS Pharma Biomedical). After washing 3 times with 0.05% Tween 20/PBS (Thermo […]), each Eph receptor of human extracellular region-SEAP-His protein (final concentration 1 nM) was seeded into each well, and incubated at room temperature for 1 hour. After washing 3 times, human IgG solution (100 μg/mL, Mitsubishi Pharma Corporation) and antibody A (10 μg/mL) were supplemented to the wells, and incubated at room temperature for 1 hour. Horseradish peroxidase-labeled donkey anti-mouse IgG antibody (Jackson ImmunoResearch Laboratories) was added, and incubated at room, temperature for 1 hour. After washing 3 times, TMBZ (3,3′,5,5′-tetramethylbenzidine, Sigma) solution was added to the wells, and upon confirmation of modest coloring, an equal amount of quenching solution (1 N H₂SO₄, Wako Pure Chemicals) was added to the wells, and absorbance at 450 nm was read by a microplate reader (PerkinElmer).

[2] = target: T2, human EphA10 extracellular region-SEAP-His protein (human, UniProt Q5JZY3 34-565)
T2 construct: extracellular domain; also called Eph receptor extracellular region-SEAP-His protein; not shown: secretory alkaline phosphatase (SEAP); histidine tag
T2 sequence (looked up): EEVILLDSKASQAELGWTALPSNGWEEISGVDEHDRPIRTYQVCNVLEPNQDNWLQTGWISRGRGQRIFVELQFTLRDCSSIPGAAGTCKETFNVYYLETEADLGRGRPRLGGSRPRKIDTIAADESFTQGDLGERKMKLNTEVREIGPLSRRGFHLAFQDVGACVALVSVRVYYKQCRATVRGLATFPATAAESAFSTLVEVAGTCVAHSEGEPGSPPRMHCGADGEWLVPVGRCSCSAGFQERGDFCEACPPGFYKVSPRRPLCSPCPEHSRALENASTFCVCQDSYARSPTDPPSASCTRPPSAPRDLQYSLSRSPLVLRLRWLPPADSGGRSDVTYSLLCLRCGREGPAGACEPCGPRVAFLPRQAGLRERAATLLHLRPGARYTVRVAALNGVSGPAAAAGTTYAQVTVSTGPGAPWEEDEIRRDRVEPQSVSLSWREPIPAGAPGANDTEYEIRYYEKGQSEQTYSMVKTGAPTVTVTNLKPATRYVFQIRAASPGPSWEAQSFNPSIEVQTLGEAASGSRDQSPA
Experimental: as §1

[3] = target: T3, human EphB3 extracellular region-SEAP-His protein (human, UniProt P54753 34-559)
T3 construct: extracellular domain; also called Eph receptor extracellular region-SEAP-His protein; not shown: secretory alkaline phosphatase (SEAP); histidine tag
T3 sequence (looked up): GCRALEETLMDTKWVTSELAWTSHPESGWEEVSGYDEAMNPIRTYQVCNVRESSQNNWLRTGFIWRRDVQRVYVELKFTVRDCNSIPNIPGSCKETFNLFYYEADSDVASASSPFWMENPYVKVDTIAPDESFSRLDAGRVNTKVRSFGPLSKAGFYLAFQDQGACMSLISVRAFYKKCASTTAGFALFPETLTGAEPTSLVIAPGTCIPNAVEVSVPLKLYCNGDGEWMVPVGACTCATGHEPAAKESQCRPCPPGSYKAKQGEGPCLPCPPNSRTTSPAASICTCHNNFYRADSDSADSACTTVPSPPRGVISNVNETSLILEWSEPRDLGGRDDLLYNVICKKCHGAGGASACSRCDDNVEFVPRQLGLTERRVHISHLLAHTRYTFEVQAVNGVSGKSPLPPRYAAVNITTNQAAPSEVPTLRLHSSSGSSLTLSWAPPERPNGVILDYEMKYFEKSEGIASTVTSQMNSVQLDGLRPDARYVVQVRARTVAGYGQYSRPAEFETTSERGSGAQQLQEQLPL
Experimental: as §1

Measured: binding result

B1: mouse anti-EphA4 monoclonal antibody (antibody A) (antibody, mouse IgG1, kappa, V domains shown)
VH: QVQLKQSGPSLVQPSQSLSITCTVSGFSLTRYGVHWVRQSPGKGLEWLGVIWRGGSTDYNAAFMSRLSITKDNSKSQVFFKMNSLQADDTAIYYCAKESLFGVYYDYGYYSMDYWGQGTSVTVSS
VL: DIQMTQSPSSLSASLGERVSLTCRASQEISGYLSWLQQKPDGTIKRLIYAASTLDSGVPKRFSGSRSGSDYSLTISSLESEDFADYYCLQYASYPLTFGAGTKLELKR
notes: purified from hybridoma supernatant
no binding (tested: 10 µg/mL): all assays above

Source: patent US20240010735A1 (EISAI R AND D MANAGEMENT, published 2024)
